The text below walks through data of patent US20250347696A1, “SELF-ACTIVATING FÖRSTER RESONANCE ENERGY TRANSFER (saFRET) BIOSENSORS AND METHODS FOR MAKING AND USING THEM” (The Regents of the University of California, priority 2021, published 2025).

Series [1] deals with improved ZAP70 FRET biosensor with substrate … (SEQ ID NO:113), kinase domain removed. Nature of the series: cell-based or functional assay.
Series [2] addresses parental (WT) ZAP70 FRET biosensor with LAT Y191 substrate … (SEQ ID NO:107), kinase domain removed. Kind of series: cell-based or functional assay.
Series [3] has as its target improved ZAP70 FRET biosensor with substrate … (SEQ ID NO:113), kinase domain removed.

B1: ZAP70 kinase (Zeta-chain-associated protein kinase 70), endogenous in Jurkat T cells (protein)
chain: MPDPAAHLPFFYGSISRAEAEEHLKLAGMADGLFLLRQCLRSLGGYVLSLVHDVRFHHFPIERQLNGTYAIAGGKAHCGPAELCEFYSRDPDGLPCNLRKPCNRPSGLEPQPGVFDCLRDAMVRDYVRQTWKLEGEALEQAIISQAPQVEKLIATTAHERMPWYHSSLTREEAERKLYSGAQTDGKFLLRPRKEQGTYALSLIYGKTVYHYLISQDKAGKYCIPEGTKFDTLWQLVEYLKLKADGLIYCLKEACPNSSASNASGAAAPTLPAHPSTLTHPQRRIDTLNSDGYTPEPARITSPDKPRPMPMDTSVYESPYSDPEELKDKKLFLKRDNLLIADIELGCGNFGSVRQGVYRMRKKQIDVAIKVLKQGTEKADTEEMMREAQIMHQLDNPYIVRLIGVCQAEALMLVMEMAGGGPLHKFLVGKREEIPVSNVAELLHQVSMGMKYLEEKNFVHRDLAARNVLLVNRHYAKISDFGLSKALGADDSYYTARSAGKWPLKWYAPECINFRKFSSRSDVWSYGVTMWEALSYGQKPYKKMKGPEVMAFIEQGKRMECPPECPPELYALMSDCWIYKWEDRPDFLTVEQRMRACYYSLASKVEGPPGSTQKAEAACA
In the case of B1, the ECFP/FRET ratio change (sensitivity) of the biosensor in Jurkat T cells upon CD3/CD28-antibody stimulation in series [1] is 25%; in series [2] it was 5.8%. Further, in series [3], the increase in sensitivity compared to the parental template (SREYVNVSGEL) is over 4 fold.
